Source: paper PMC5729408, “Site-specific bioalkylation of rapamycin by the RapM 16-O-methyltransferase” (Chemical Science, 2015)

How the values were obtained:
[1] = target: T1, hMAT2A (Homo sapiens, UniProt P31153, I322V); test: HILIC HPLC of AdoMet analogue formation; format: biochemical; settings: ATP 1.5 mM, substrate 1.5 mM, MgCl2 3 mM, pH 7.4, 30 °C
T1 construct: gene MAT2A; pNIC28-Bsa4-hMAT2A, His-tagged, E. coli Rosetta 2, Ni-NTA; rows are the I322V mutant

[2] = substrate: C/C1=C\[C@@H](C)C(=O)C[C@@H]([C@H](C)C[C@@H]2CC[C@@H](O)[C@H](O)C2)OC(=O)[C@@H]2CCCCN2C(=O)C(=O)[C@]2(O)O[C@@H](CC[C@H]2C)C[C@H](O)/C(C)=C/C=C/C=C/[C@@H](C)C[C@@H](C)C(=O)[C@H](O)[C@@H]1O; test: RP-HPLC methyltransferase assay; format: biochemical, Streptomyces hygroscopicus; settings: AdoMet 500 µM; BC231 2.5–250 µM

T1 sequence (P31153 whole entry I322V): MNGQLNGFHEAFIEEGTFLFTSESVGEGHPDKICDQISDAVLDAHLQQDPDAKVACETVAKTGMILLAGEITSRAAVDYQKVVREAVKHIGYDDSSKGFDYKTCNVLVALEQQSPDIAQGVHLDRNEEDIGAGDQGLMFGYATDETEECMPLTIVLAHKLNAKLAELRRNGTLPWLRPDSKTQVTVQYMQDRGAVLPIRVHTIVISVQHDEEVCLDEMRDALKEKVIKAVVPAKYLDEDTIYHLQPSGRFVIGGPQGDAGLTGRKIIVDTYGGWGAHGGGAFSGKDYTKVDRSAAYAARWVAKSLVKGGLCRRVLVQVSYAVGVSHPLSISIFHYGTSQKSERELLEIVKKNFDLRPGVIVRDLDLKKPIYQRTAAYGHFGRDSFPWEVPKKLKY

Row | Molecule | HILIC HPLC of AdoMet analogue formation [1] | Km [2] | kcat [2]
1 | C=CCSCC[C@H](N)C(=O)O [S-allyl-L-homocysteine] | evaluated with L-ethionine and S-allyl-L-homocysteine (Sahc) as substrates |  | 
2 | RapM (Streptomyces hygroscopicus) (protein, wild-type rapM in pET28a(+) (NdeI/XhoI), N-terminal His6 tag, E. coli BL21 (DE3), Ni-NTA) MIQPDVVTAFTAVRDINLDEPGTPQAETKAATFKSASSSIYDLAASMSAKGQLWNWGVHDSEFVAEIEARLPGFTEYGTDGFSEQLYYLALRDLPKGLESCDGRTVLEVGCGMGEGLNFLSRLVPTARMTGLDLAPKAIASATATLSRGDTLRFVQGDAEELPFEDSSVDVLVNIESSHTYPNLGRFLREAARALRRGGALSHIDVFTRQRLEAMRRITTEIPELKWVSDHDISDQVRAAVRRRMPPDSHLRSTLNKQRMNRLARTLALHSQITVFGGTFADYQPPASVKMLSRLGLVPPMDSLPMETYRHQIAVRV |  | 48.9 ± 7.1 µM | 1.47 ± 0.072 min^–1
